Data from article PMC4741949, “Aptamer targeting EGFRvIII mutant hampers its constitutive autophosphorylation and affects migration, invasion and proliferation of glioblastoma cells”.

Target: EGFR wild-type extracellular domain (human, UniProt P00533 25-645)
Assay: UV (254 nm) cross-linking MALDI-MS; 1:1 molar; peptide 495-500 (domain IV) linked to AGGC and GAGGC; RT-qPCR: 15 min 37 C, 100 ug/ml polyinosine, DPBS washes; flow cytometry: DPBS, 37 C, 30 min; confocal: DMEM without FBS; UV cross-linking buffer not given
Settings: protein: recombinant

B1: CL4 (structured_RNA)
RNA: GCCUUAGUAACGUGCUUUGAUGUCGAUUCGACAGGAGGC
modifications: 2'F-pyrimidines (2'F-C, 2'F-U)
Does B1 bind?
Result: binds
